Measured values as given in US20220089743A1 (Chugai, published 2022).
Numbering of substitutions follows the chain as printed.

B1: DQN0344H0976/L0591//DQN0385H1270/L0681-F6 (bispecific antibody)
heavy 1: QVQLVESGGGVVQPGGSLRLSCAASGFTFSSAYWMVWVRQAPGQGLEWMGAVYGGSDTTYYAKWTEGRFTISRDTSKNTLYLQMNSLRAEDTAVYYCAREPLNYYYYGELNLWGQGTLVTVSSASTKGPSVFPLAPSSKSTSGGTAALGCLVKDYFPEPVTVSWNSGALTSGVHTFPAVLKSSGLYSLSSVVTVPSSSLGTQTYICNVNHKPSNTKVDKRVEPKSCDKTHTCPPCPAPELRRGPSVFLFPPKPKDTLMISRTPEVTCVVVDVSHEDPEVKFNWYVDGVEVHNAKTKPREEQYNSTYRVVSVLTVLHQDWLNGKEYKCKVSNKALPAPIEKTISKAKGQPREPQVYTLPPSREEMTKNQVSLTCLVKGFYPSDIAVEWESNGQPENNYKTTPPYLDSDGSFFLYSKLTVDKSRWQEGNVFSCSVLHEALHAHYTREELSLSP
light 1: DIQMTQSPSSLSASVGDRVTITCQATEEIYSGLAWYQQKPGKAPKLLIYYVSTLYEGIPARFSGSGSGTDFTLTISSLEPEDFAVYYCQTYEDVSAVTFGQGTKVEIKRTVAAPSVFIFPPSDEQLKSGTAEVVCLLNNFYPREAKVQWKVDNALQSGNSEESVTEQDSKDSTYSLSSTLTLSKADYEKHKVYACEVTHQGLSSPVTKSFNRGEC
heavy 2: QVQLVESGGGVVQPGRSLRLSCAASGFTFSEWYFMSWVRQAPGKGLEWVASIDTGSGSIDYAEWVEGRFTISRDNSKNTLYLQMNSLRAEDTAVYYCARDIGIDYNFWGPGTLVTVSSASTKGPSVFPLAPSSKSTSGGTAALGCLVEDYFPEPVTVSWNSGALTSGVHTFPAVLESSGLYSLSSVVTVPSSSLGTKTYICNVNHKPSNTKVDKRVEPKSCDKTHTCPPCPAPELRRGPSVFLFPPKPKDTLMISRTPEVTCVVVDVSHEDPEVKFNWYVDGVEVHNAKTKPREEQYNSTYRVVSVLTVLHQDWLNGKEYKCKVSNKALPAPIEKTISKAKGQPREPQVYTLPPSRKEMTKNQVSLTCLVKGFYPSDIAVEWESNGQPENNYKTTPPYLDSDGSFFLYSKLTVDKSRWQQGNVFSCSVLHEALHAHYTRKELSLSP
light 2: DIQMTQSPSSLSASVGDRVTITCQTTQSISSYLNWYQQKPGQPPKLLIYYASTKAEGIPARFSGSGLGTDFTLTISSLEPEDFAVYYCHYGISKVSFGQGTKVEIKRTVAAPSVFIFPPSDEQLKSGTAKVVCLLNNFYPREAKVQWKVDNALQSGNSKESVTEQDSKDSTYSLSSTLTLSKADYEKHKVYACEVTHQGLSSPVTKSFNRGEC
B2: DQN0344H0976/L0591//DQN0385H1270/L0722-F6 (bispecific antibody)
heavy 1: B1 heavy 1
light 1: B1 light 1
heavy 2: B1 heavy 2
light 2: B1 light 2 with E79Q
B3: DQN0344H0976/L0591//DQN0385H1255/L0605-F6 (bispecific antibody)
heavy 1: B1 heavy 1
light 1: B1 light 1
heavy 2: B1 heavy 2 with E63G, G67E
light 2: B1 light 2 with L67S
B4: DQN0344H0976/L0591//DQN0385H1527/L0605-F6 (bispecific antibody)
heavy 1: B1 heavy 1
light 1: B1 light 1
heavy 2: B1 heavy 2 with S30A, E31S
light 2: B1 light 2 with L67S
B5: DQN0344H1013/L0620//DQN0385H1270/L0681-F6 (bispecific antibody)
heavy 1: B1 heavy 1 with G16R, L112V
light 1: B1 light 1 with E28N, Y55A, E56Y
heavy 2: B1 heavy 2
light 2: B1 light 2
B6: DQN0344H0976/L0591//DQN0385H1352/L0681-F6 (bispecific antibody)
heavy 1: B1 heavy 1
light 1: B1 light 1
heavy 2: B1 heavy 2 with T28E
light 2: B1 light 2
B7: DQN0344H0976/L0591//DQN0385H1255/L0605-F6.v2 (bispecific antibody, V domains shown)
VH 1: QVQLVESGGGVVQPGGSLRLSCAASGFTFSSAYWMVWVRQAPGQGLEWMGAVYGGSDTTYYAKWTEGRFTISRDTSKNTLYLQMNSLRAEDTAVYYCAREPLNYYYYGELNLWGQGTLVTVSS
VL 1: DIQMTQSPSSLSASVGDRVTITCQATEEIYSGLAWYQQKPGKAPKLLIYYVSTLYEGIPARFSGSGSGTDFTLTISSLEPEDFAVYYCQTYEDVSAVTFGQGTKVEIK
VH 2: QVQLVESGGGVVQPGRSLRLSCAASGFTFSEWYFMSWVRQAPGKGLEWVASIDTGSGSIDYAGWVEERFTISRDNSKNTLYLQMNSLRAEDTAVYYCARDIGIDYNFWGPGTLVTVSS
VL 2: DIQMTQSPSSLSASVGDRVTITCQTTQSISSYLNWYQQKPGQPPKLLIYYASTKAEGIPARFSGSGSGTDFTLTISSLEPEDFAVYYCHYGISKVSFGQGTKVEIK

target: T1, HLA-DQ2.5 on IHW09023 cells loaded with 33 mer gliadin peptide (human; wheat); experiment: cell-based or functional assay

Binder | IC50, α1b gliadin TCR, 250 nM 33mer gliadin | IC50, α2 gliadin TCR, 250 nM 33mer gliadin | IC50, α1a gliadin TCR, 250 nM 33mer gliadin
B1 | 1.36 ng/mL | 0.34 ng/mL | 
B2 | 1.41 ng/mL | 0.31 ng/mL | 0.38 ng/mL
B3 | 2.66 ng/mL | 0.56 ng/mL | 0.49 ng/mL
B4 | 1.84 ng/mL | 0.51 ng/mL | 0.7 ng/mL
B5 | 1.78 ng/mL | 0.33 ng/mL | 0.38 ng/mL
B6 | 1.37 ng/mL | 0.31 ng/mL | 0.29 ng/mL

target: T2, HLA-DQ2.5 on IHW09023 cells loaded with omega1/2 gliadin peptide (human; wheat); experiment: cell-based or functional assay

Binder | IC50, ω1 gliadin TCR, 25 µM ω1/2 gliadin | IC50, ω2 gliadin TCR, 250 nM ω1/2 gliadin
B1 | 2.07 ng/mL | 0.26 ng/mL
B2 | 2.55 ng/mL | 0.26 ng/mL
B3 | 2.62 ng/mL | 0.25 ng/mL
B4 | 3.25 ng/mL | 0.3 ng/mL
B5 | 2.51 ng/mL | 0.2 ng/mL
B6 | 1.48 ng/mL | 0.24 ng/mL

target: T3, HLA-DQ2.5 on IHW09023 cells loaded with BC hordein peptide (human; barley); experiment: cell-based or functional assay

Binder | IC50, BC hordein TCR, 250 nM BC hordein
B1 | 12 ng/mL
B2 | 13.2 ng/mL
B3 | 13.6 ng/mL
B4 | 6.54 ng/mL
B5 | 7.54 ng/mL
B6 | 10.8 ng/mL

target: T4, HLA-DQ2.5 on IHW09023 cells loaded with gamma 1 gliadin peptide (human; wheat); experiment: cell-based or functional assay

Binder | IC50, γ1 gliadin TCR, 250 nM γ1 gliadin
B1 | 1.05 ng/mL
B2 | 0.66 ng/mL
B3 | 0.91 ng/mL
B4 | 0.59 ng/mL
B5 | 1.11 ng/mL
B6 | 1.11 ng/mL

target: T5, HLA-DQ2.5 on IHW09023 cells loaded with gamma 2 gliadin peptide (human; wheat); experiment: cell-based or functional assay

Binder | IC50, γ2 gliadin TCR, 250 nM γ2 gliadin
B1 | 182 ng/mL
B2 | 281 ng/mL
B3 | 440 ng/mL
B4 | 637 ng/mL
B5 | 322 ng/mL
B6 | 284 ng/mL

target: T6, HLA-DQ2.5 on IHW09023 cells loaded with gamma 3 gliadin peptide (human; wheat); experiment: cell-based or functional assay

Binder | IC50, γ3 gliadin TCR, 100 µM γ3 gliadin
B1 | 2.4 ng/mL
B2 | 2.88 ng/mL
B3 | 2.31 ng/mL
B4 | 2.09 ng/mL
B5 | 2.63 ng/mL
B6 | 2.99 ng/mL

target: T7, HLA-DQ2.5 on IHW09023 cells loaded with gamma 4a gliadin peptide (human; wheat); experiment: cell-based or functional assay

Binder | IC50, γ4a gliadin TCR, 25 µM γ4a gliadin
B1 | 749 ng/mL
B2 | 726 ng/mL
B3 | 1430 ng/mL
B4 | 1210 ng/mL
B5 | 1160 ng/mL
B6 | 802 ng/mL

target: T8, HLA-DQ2.5 on IHW09023 cells loaded with gamma 4d gliadin peptide (human; wheat); experiment: cell-based or functional assay

Binder | IC50, γ4d gliadin TCR, 100 µM γ4d gliadin
B1 | 11.8 ng/mL
B2 | 16.3 ng/mL
B3 | 12.4 ng/mL
B4 | 11.4 ng/mL
B5 | 13.1 ng/mL
B6 | 9.82 ng/mL

target: T1, HLA-DQ2.5 on IHW09023 cells loaded with …; experiment: cell-based or functional assay; remark: another data set of the same source

Binder | IC50, α1a gliadin TCR, 250 nM 33mer gliadin | IC50, α1b gliadin TCR, 250 nM 33mer gliadin | IC50, α2 gliadin TCR, 250 nM 33mer gliadin
B7 | 0.46 ng/mL | 1.33 ng/mL | 0.29 ng/mL

target: T2, HLA-DQ2.5 on IHW09023 cells loaded with …; experiment: cell-based or functional assay; remark: another data set of the same source

Binder | IC50, ω1 gliadin TCR, 25 µM ω1/2 gliadin | IC50, ω2 gliadin TCR, 250 nM ω1/2 gliadin
B7 | 1.62 ng/mL | 0.18 ng/mL

target: T3, HLA-DQ2.5 on IHW09023 cells loaded with …; experiment: cell-based or functional assay; remark: another data set of the same source

Binder | IC50, BC hordein TCR, 250 nM BC hordein
B7 | 9.52 ng/mL

target: T4, HLA-DQ2.5 on IHW09023 cells loaded with …; experiment: cell-based or functional assay; remark: another data set of the same source

Binder | IC50, γ1 gliadin TCR, 250 nM γ1 gliadin
B7 | 1.62 ng/mL

target: T5, HLA-DQ2.5 on IHW09023 cells loaded with …; experiment: cell-based or functional assay; remark: another data set of the same source

Binder | IC50, γ2 gliadin TCR, 250 nM γ2 gliadin
B7 | 252 ng/mL

target: T6, HLA-DQ2.5 on IHW09023 cells loaded with …; experiment: cell-based or functional assay; remark: another data set of the same source

Binder | IC50, γ3 gliadin TCR, 100 µM γ3 gliadin
B7 | 1.55 ng/mL

target: T7, HLA-DQ2.5 on IHW09023 cells loaded with …; experiment: cell-based or functional assay; remark: another data set of the same source

Binder | IC50, γ4a gliadin TCR, 25 µM γ4a gliadin
B7 | 636 ng/mL

target: T8, HLA-DQ2.5 on IHW09023 cells loaded with …; experiment: cell-based or functional assay; remark: another data set of the same source

Binder | IC50, γ4d gliadin TCR, 100 µM γ4d gliadin
B7 | 8.69 ng/mL

target: HLA-DQ2.2 on HBBB2.2 cells loaded with 33 mer gliadin peptide (human; wheat); experiment: cell-based or functional assay

Binder | IC50, HLA-DQ2.2, α1a gliadin TCR, 25 µM 33mer gliadin | IC50, HLA-DQ2.2, α2 gliadin TCR, 1 µM 33mer gliadin
B7 | 1.72 ng/mL | 9.48 ng/mL
